Test results reported in article PMC7333892, “Identification of a PGXPP degron motif in dishevelled and structural basis for its binding to the E3 ligase KLHL12” (Open Biology, 2020).
“Also recorded” adds a separate entry of the source. Where no end group is shown, it is not given here. The star is where a group is joined. FITC = O=C1OC2(c3ccc(O)cc3Oc3cc(O)ccc32)c2ccc(NC(=S)*)cc21

Experiments:
DVL1 = DVL1 stabilization by MLN4924 in HEK293T cells co-transfected with KLHL12; format: cell-based; conditions: western blot
Method: (§1) We further investigated whether the ‘PGGPP' motif regulates the KLHL12-dependent degradation of DVL1. WT and mutant DVL1 constructs were therefore transfected into HEK293T cells in the presence or absence of full-length KLHL12. […] By contrast, the levels of the DVL1 mutants were unchanged by KLHL12 co-expression.
(§2) Full-length Flag-KLHL12 and HA-DVL1 constructs were transfected into HEK293T cells at 60% confluency with polyethylenimine. 40 h after transfection, cells were treated with cycloheximide (CHX) for 1 h or MLN4924 for 4 h and then harvested and lysed. Protein levels were analysed by Western blotting (anti-Flag antibody, Sigma-Aldrich, F1804; RRID:AB_262044 and anti-HA antibody, Biolegend, 901501; RRID:AB_2565006).

KLHL12 Kelch domain = target: T1, KLHL12 Kelch domain (Homo sapiens, UniProt Q53G59); experiment: Fluorescence polarization peptide binding to KLHL12; conditions: N-terminal FITC-labelled peptide 40 nM, 50 mM HEPES pH 7.5, 300 mM NaCl, 0.5 mM TCEP, 0.01% Triton-X, mean, n = 3
T1 construct: Human KLHL12 Kelch domain (Uniprot Q53G59-1, residues 268–567); His6 (N); made in house; host or cells: E. coli BL21(DE3)-R3-pRARE, vector pNIC28-Bsa4 (Addgene_38908)
T1 sequence (Q53G59 268-567): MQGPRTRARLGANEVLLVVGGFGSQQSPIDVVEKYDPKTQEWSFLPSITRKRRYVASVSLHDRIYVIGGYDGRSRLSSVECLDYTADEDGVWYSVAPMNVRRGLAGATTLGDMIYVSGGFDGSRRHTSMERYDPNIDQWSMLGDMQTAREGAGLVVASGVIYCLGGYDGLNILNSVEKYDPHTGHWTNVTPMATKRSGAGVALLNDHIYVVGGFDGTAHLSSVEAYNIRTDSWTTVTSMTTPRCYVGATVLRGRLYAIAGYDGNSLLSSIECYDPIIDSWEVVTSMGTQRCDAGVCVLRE
Method: Human KLHL12 Kelch domain (Uniprot Q53G59-1, residues 268–567) and KLHL7 Kelch domain (Uniprot Q8IXQ5-1, residues 283–586) were expressed from the vector pNIC28-Bsa4 in BL21(DE3)-R3-pRARE cells and purified by nickel affinity and size exclusion chromatography as described previously. Both plasmids are deposited in addgene (RRID:Addgene_38908 and RRID:Addgene_39023, respectively).
Fluorescence polarization assays were performed in 384-well plates using a Synergy 2 microplate reader (BioTek) with excitation and emission wavelengths of 485 nm and 528 nm, respectively. Peptides were synthesized, N-terminally labelled with FITC and purified by Tufts University Core Services (Boston, MA). Binding assays were performed in 10 µl volume at a constant labelled peptide concentration of 40 nM and indicated Kelch domain protein concentrations in a buffer containing 50 mM HEPES, pH 7.5, 300 mM NaCl, 0.5 mM TCEP and 0.01% Triton-X. Binding data were corrected for background of the free labelled peptides (no protein). For KD determination, data were fitted to a hyperbolic function using Sigma Plot software (Systat Software, San Jose CA). KD values represent mean ± S.E. (n = 3).

[1] = system: full-length Flag-tagged KLHL12; experiment: Co-immunoprecipitation of HA-DVL1 variants with Flag-KLHL12 in HEK293T cells; format: cell-based; conditions: MLN4924 4 h, anti-Flag immunoprecipitation, western blot
Method: To validate the identified ‘PGGPP' sequence as degron motif for DVL1 recruitment and degradation by the KLHL12, we tested the binding, ubiquitination and stability of DVL1 in HEK293T cells. Two variants of full-length HA-tagged DVL1 were prepared in which the 657-‘PPGGPP' motif was either mutated to ‘AAAAAA' or deleted. Immunoprecipitation of the complex using full-length Flag-tagged KLHL12 was performed in cells treated with the neddylation inhibitor MLN4924 to ensure the stability of all transfected DVL1 variants. […] To confirm that the interaction promoted DVL1 ubiquitination, we next transfected Flag-tagged KLHL12 and HA-DVL1 variants into cells pretreated with the proteasome inhibitor MG132. DVL1 was immunoprecipitated by anti-HA agarose and its ubiquitination status probed by immunoblotting for the presence of high molecular weight poly-ubiquitin conjugates. A marked reduction in the ubiquitination of the two DVL1 mutants was observed compared to wild-type consistent with the importance of the ‘PGGPP' motif for KLHL12 recruitment (figure 5b). […]
Full-length DVL1 variants (Uniprot O14640-1) and KLHL12 were subcloned into a pcDNA3 vector, with N-terminal HA tag and Flag tag, respectively. […] Results were analysed using western blotting (Anti-Flag antibody, Sigma-Aldrich, F1804; RRID:AB_262044; Anti-HA antibody, Biolegend, 901501; RRID:AB_2565006).

full-length KLHL12 = experiment: Stability assay of DVL1 variants with or without KLHL12 in HEK293T cells; format: cell-based; conditions: KLHL12 co-expression versus DVL1 alone, cycloheximide 1 h, western blot, GAPDH loading control
Method: as §1, §2

KLHL12 = conditions: parallel study, ref [36] Zhao et al.; cited from earlier work
Source text: The omitted proline position is substituted by a glycine or alanine in pa ...

[2] = target: T2, Human KLHL12 Kelch domain (residues 268-567) (human, UniProt Q53G59-1 268-567); experiment: fluorescence polarisation; 40 nM FITC-labelled peptide, Kelch domain protein titrated; 50 mM HEPES pH 7.5, 300 mM NaCl, 0.5 mM TCEP, 0.01% Triton-X; hyperbolic fit, n = 3; conditions: both partners purified
T2 construct: KLHL12 Kelch domain, human, Uniprot Q53G59-1, residues 268-567; the structure traces residues 279-567; The His6 tag is kept in the SPOT arrays (detected with anti-His antibody); Expressed from the vector pNIC28-Bsa4; also called 6 x His-KLHL12 Kelch domain; His6-tagged KLHL12 Kelch domain
T2 sequence (looked up): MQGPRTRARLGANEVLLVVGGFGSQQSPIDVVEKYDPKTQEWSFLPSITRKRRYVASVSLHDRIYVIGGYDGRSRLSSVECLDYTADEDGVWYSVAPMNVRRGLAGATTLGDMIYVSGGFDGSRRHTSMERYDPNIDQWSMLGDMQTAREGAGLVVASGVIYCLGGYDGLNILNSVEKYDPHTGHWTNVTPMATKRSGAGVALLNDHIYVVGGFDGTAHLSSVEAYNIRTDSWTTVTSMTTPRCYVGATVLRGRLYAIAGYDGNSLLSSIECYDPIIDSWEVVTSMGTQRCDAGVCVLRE

[3] = target: T2, Human KLHL12 Kelch domain (residues …); experiment: peptide or protein array; initial DVL1 SPOT array: 20-mer peptides on cellulose membrane, incubated with 0.4 µM His6-tagged Kelch domain protein in PBS for 1 h at 4°C, bound protein detected with HRP-conjugated anti-His antibody; conditions: both partners purified

**Q.** With `NS(=O)(=O)OC[C@@H]1C[C@@H](n2ccc3c(N[C@H]4CCc5ccccc54)ncnc32)C[C@@H]1O` [MLN4924] as the molecule, how does the “stability of DVL1 WT on MLN4924” value (DVL1; HEK293T cells co-transfected with DVL1 WT and KLHL12, MLN4924 4 h) read?
**A.** Its value is “stabilized DVL1 WT; also recorded: rescued the stability of DVL1 WT”.

**Q.** What about the “stability of DVL1 mutants on MLN4924” value (DVL1; HEK293T cells co-transfected with DVL1 mutants and KLHL12, MLN4924 4 h) of the same molecule?
**A.** Its value is “not DVL1 mutants”.

**Q.** Which Kd (KLHL12 Kelch domain) does the source give for `CC(C)C[C@H](NC(=O)[C@H](CCC(=O)O)NC(=O)[C@H](CCCNC(=N)N)NC(=O)[C@@H](NC(=O)[C@@H]1CCCN1C(=O)[C@@H]1CCCN1C(=O)CNC(=O)CNC(=O)[C@@H]1CCCN1C(=O)[C@@H]1CCCN1C(=O)CNC(=O)CNC(=O)[C@@H](NC(=O)[C@@H](NC(=O)[C@@H](NC(=O)[C@H](Cc1ccc(O)cc1)NC(=O)[C@H](C)N)[C@@H](C)O)C(C)C)C(C)C)C(C)C)C(=O)N[C@@H](C)C(=O)N[C@@H](C)C(=O)N[C@H](C(=O)O)C(C)C` [Spot A13] here?
**A.** The Kd was 22.3 µM.

B1: DVL1 WT: full-length HA-tagged wild-type DVL1 expressed in cells (protein)
chain: MAETKIIYHMDEEETPYLVKLPVAPERVTLADFKNVLSNRPVHAYKFFFKSMDQDFGVVKEEIFDDNAKLPCFNGRVVSWLVLAEGAHSDAGSQGTDSHTDLPPPLERTGGIGDSRPPSFHPNVASSRDGMDNETGTESMVSHRRERARRRNREEAARTNGHPRGDRRRDVGLPPDSASTALSSELESSSFVDSDEDGSTSRLSSSTEQSTSSRLIRKHKRRRRKQRLRQADRASSFSSITDSTMSLNIVTVTLNMERHHFLGISIVGQSNDRGDGGIYIGSIMKGGAVAADGRIEPGDMLLQVNDVNFENMSNDDAVRVLREIVSQTGPISLTVAKCWDPTPRSYFTVPRADPVRPIDPAAWLSHTAALTGALPRYGTSPCSSAVTRTSSSSLTSSVPGAPQLEEAPLTVKSDMSAVVRVMQLPDSGLEIRDRMWLKITIANAVIGADVVDWLYTHVEGFKERREARKYASSLLKHGFLRHTVNKITFSEQCYYVFGDLCSNLATLNLNSGSSGTSDQDTLAPLPHPAAPWPLGQGYPYQYPGPPPCFPPAYQDPGFSYGSGSTGSQQSEGSKSSGSTRSSRRAPGREKERRAAGAGGSGSESDHTAPSGVGSSWRERPAGQLSRGSSPRSQASATAPGLPPPHPTTKAYTVVGGPPGGPPVRELAAVPPELTGSRQSFQKAMGNPCEFFVDIM
modifications: left off: HA, N-terminal, kept
notes: full-length HA-tagged wild-type DVL1 expressed in cells
**Q.** With B1 as the molecule, how does the “binding of DVL1 to KLHL12 (immunoprecipitation)” value [1] read?
**A.** The value was “bound robustly”.

**Q.** And the “binding of DVL1 to KLHL12 (immunoprecipitation)” value ([1]; listed as Wild-type (WT) DVL1)?
**A.** Its value is “bound robustly to KLHL12”.

**Q.** And the “DVL1 protein level / stability” value (full-length KLHL12)?
**A.** The value was “striking reduction in the DVL1 protein level”.

B2: DVL3 (Zhao et al.): DVL3, KLHL12 binding by NMR in a parallel study by Zhao et al. (protein, UniProt Q92997 1-716, looked up)
Segment polarity protein …: MGETKIIYHLDGQETPYLVKLPLPAERVTLADFKGVLQRPSYKFFFKSMDDDFGVVKEEISDDNAKLPCFNGRVVSWLVSAEGSHPDPAPFCADNPSELPPPMERTGGIGDSRPPSFHPHAGGGSQENLDNDTETDSLVSAQRERPRRRDGPEHATRLNGTAKGERRREPGGYDSSSTLMSSELETTSFFDSDEDDSTSRFSSSTEQSSASRLMRRHKRRRRKQKVSRIERSSSFSSITDSTMSLNIITVTLNMEKYNFLGISIVGQSNERGDGGIYIGSIMKGGAVAADGRIEPGDMLLQVNEINFENMSNDDAVRVLREIVHKPGPITLTVAKCWDPSPRGCFTLPRSEPIRPIDPAAWVSHTAAMTGTFPAYGMSPSLSTITSTSSSITSSIPDTERLDDFHLSIHSDMAAIVKAMASPESGLEVRDRMWLKITIPNAFIGSDVVDWLYHNVEGFTDRREARKYASNLLKAGFIRHTVNKITFSEQCYYIFGDLCGNMANLSLHDHDGSSGASDQDTLAPLPHPGAAPWPMAFPYQYPPPPHPYNPHPGFPELGYSYGGGSASSQHSEGSRSSGSNRSGSDRRKEKDPKAGDSKSGGSGSESDHTTRSSLRGPRERAPSERSGPAASEHSHRSHHSLASSLRSHHTHPSYGPPGVPPLYGPPMLMMPPPPAAMGPPGAPPGRDLASVPPELTASRQSFRMAMGNPSEFFVDVM
**Q.** For B2, which “binding to KLHL12 by NMR” value (KLHL12) is on record?
**A.** Its value is “confirmed the binding”.

B3: FITC-labelled DVL1 peptide, residues 650-669 (peptide, UniProt O14640-1 650-669, looked up)
peptide: {FITC}-AYTVVGGPPGGPPVRELAAV
notes: source: synthetic peptide (Tufts University Core Services), purified
**Q.** For B3, which Kd [2] is on record?
**A.** Its Kd is 22.3 µM.

B4: DVL1 20-mer peptide, residues 650-669, printed on the SPOT array (spot A13) (peptide, UniProt O14640-1 650-669, looked up)
peptide: AYTVVGGPPGGPPVRELAAV
notes: source: synthetic peptide, synthesized directly on a modified cellulose membrane with a polyethylglycol linker (SPOT)
**Q.** Does B4 bind [3]?
**A.** Result: binds
